Data from patent publication US20260137783A1 (CRISPR THERAPEUTICS, published 2026).

B1: Anti-CD117 VHH P10 (monovalent form) (VHH)
VHH: QVQLVESGGGLVQAGGSLRLSCVASGRTFSSYAMGWFRQGPGKEREFAAAILSNGLTTYYADSVKGRFTISRDNAKDTVYLQMNSLKPEDTANYYCAAAFTPEFRDGGIWDDASVDYWGQGTQVTVSS
notes: Secreted from Expi293 cells
B2: Anti-CD117 VHH P12 (monovalent form) (VHH)
VHH: QVQLVESGGGLVQAGGSLRLSCTASGDTFSSYSMGWFRQGPGKEREFVGGIRWSGGTTYYADSVKGRFTISRDNAKNTVYLQMNSLKREDTAVYYCAAVRRRWLIWQEEEYDYWGQGTLVTVSS
notes: Secreted from Expi293 cells
B3: Anti-CD117 VHH P27 (monovalent form) (VHH)
VHH: EVQLVESGGGLVRAGGSLRLSCAASGRTTFSTYWLGWFRQAPGKNREFVAAISWSAGMAYYQDSKGRFTISRDNTKNTAYLQMNSLQPEDTAVYYCAAGRFHPIRVDTALYWAQGTQVTVSS
notes: Secreted from Expi293 cells
B4: Anti-CD117 VHH P29 (monovalent form) (VHH)
VHH: QVHLVESGGGLVQAGGSLGLSCAASGHTFSNYAMGWFRQAPGKEREFVAAISWSGGSTLYADSVKGRFTISRDNGENTVYLQMNSLKPEDTAVYYCALDSTGVYGTGYVSSRKGRYEYWGQGTLVTVSS
notes: Secreted from Expi293 cells
B5: Anti-CD117 VHH P31 (monovalent form) (VHH)
VHH: EVQLVESGGGLVRAGGSLRLSCAASGRTFTYDARAWFRQAPGKEREFVAAISWSGGSTYYPNSMKGRFTISRDNAKNTVYLQMNSLKPEDTAVYYCAADESFPAYYSDYALYRYWGQGTLVTVSS
notes: Secreted from Expi293 cells
B6: Anti-CD117 VHH P35 (monovalent form) (VHH)
VHH: QVQLVESGGGLVQAGGSLRLSCAASGGTFSIYPVGWFRQAPGKQREFVAAIGWSASGTYYGDSVEGRFTVSRDNARSTVYLRMSSLKPDDTAVYYCAAASGSNWRLGAIDEYDSWGQGTQVTVSS
notes: Secreted from Expi293 cells
B7: Anti-CD117 VHH P38 (monovalent form) (VHH)
VHH: EVQLVESGGGLVQAGGSLRLSCAASGRTSGSYVMGWFRQAPGKEREFVAAISWSAGMTYYADSVKGRFTISRDNAKNTVYLQMNSLKPEDTAVYYCAADQRGVPAYYSDYALYDYWGQGTQVTVSS

Molecular target: T1, Cell surface CD117 on CD117+ cells (SKMEL / SKMEL-3 cells, CD34+ cells / HSPCs, Kasumi-1 cells) (UniProt P10721 26-976, limits assumed)
T1 construct: whole, on cells; also called cKIT; C-kit
T1 sequence (P10721 26-976 limits assumed): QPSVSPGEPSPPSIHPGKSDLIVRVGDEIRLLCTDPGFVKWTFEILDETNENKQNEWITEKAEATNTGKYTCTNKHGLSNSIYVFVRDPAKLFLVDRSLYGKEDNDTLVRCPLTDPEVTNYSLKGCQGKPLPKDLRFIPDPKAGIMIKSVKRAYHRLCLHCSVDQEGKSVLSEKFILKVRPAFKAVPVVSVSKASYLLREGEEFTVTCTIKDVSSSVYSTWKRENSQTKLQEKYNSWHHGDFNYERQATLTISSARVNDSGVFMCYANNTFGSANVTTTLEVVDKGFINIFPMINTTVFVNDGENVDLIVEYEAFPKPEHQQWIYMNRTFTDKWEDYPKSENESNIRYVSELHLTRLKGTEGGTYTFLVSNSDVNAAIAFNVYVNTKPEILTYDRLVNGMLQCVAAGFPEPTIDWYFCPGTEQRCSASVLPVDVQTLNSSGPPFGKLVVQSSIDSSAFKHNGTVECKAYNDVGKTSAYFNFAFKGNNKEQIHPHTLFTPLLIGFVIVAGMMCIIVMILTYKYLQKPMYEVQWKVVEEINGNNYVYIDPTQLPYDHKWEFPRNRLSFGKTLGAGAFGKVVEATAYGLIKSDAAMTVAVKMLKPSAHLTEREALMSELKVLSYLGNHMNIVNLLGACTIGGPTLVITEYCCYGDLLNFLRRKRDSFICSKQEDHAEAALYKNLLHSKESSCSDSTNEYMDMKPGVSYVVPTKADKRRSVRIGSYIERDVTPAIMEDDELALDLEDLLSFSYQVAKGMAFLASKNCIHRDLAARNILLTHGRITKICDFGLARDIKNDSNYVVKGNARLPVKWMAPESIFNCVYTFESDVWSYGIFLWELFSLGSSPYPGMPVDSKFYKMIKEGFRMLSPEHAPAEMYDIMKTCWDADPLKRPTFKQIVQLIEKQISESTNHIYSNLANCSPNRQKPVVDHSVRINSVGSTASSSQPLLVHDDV
Assay: flow cytometry on SKMEL cells and CD34 cells (both CD117+)

Row | Binder | binding result
1 | B1 | binds
2 | B2 | binds
3 | B3 | binds
4 | B4 | binds
5 | B5 | binds
6 | B6 | binds
7 | B7 | binds
